Source: publication doi:10.1101/2021.04.23.441074 (bioRxiv, 2021)

Molecular target: MSH2-MSH3 (purified heterodimer) (human, UniProt P43246 1-934; P20585 1-1137)
Assay: native gel or EMSA

Chain of MSH2-MSH3 (purified heterodimer) (P43246 whole entry, chain 1 of 2): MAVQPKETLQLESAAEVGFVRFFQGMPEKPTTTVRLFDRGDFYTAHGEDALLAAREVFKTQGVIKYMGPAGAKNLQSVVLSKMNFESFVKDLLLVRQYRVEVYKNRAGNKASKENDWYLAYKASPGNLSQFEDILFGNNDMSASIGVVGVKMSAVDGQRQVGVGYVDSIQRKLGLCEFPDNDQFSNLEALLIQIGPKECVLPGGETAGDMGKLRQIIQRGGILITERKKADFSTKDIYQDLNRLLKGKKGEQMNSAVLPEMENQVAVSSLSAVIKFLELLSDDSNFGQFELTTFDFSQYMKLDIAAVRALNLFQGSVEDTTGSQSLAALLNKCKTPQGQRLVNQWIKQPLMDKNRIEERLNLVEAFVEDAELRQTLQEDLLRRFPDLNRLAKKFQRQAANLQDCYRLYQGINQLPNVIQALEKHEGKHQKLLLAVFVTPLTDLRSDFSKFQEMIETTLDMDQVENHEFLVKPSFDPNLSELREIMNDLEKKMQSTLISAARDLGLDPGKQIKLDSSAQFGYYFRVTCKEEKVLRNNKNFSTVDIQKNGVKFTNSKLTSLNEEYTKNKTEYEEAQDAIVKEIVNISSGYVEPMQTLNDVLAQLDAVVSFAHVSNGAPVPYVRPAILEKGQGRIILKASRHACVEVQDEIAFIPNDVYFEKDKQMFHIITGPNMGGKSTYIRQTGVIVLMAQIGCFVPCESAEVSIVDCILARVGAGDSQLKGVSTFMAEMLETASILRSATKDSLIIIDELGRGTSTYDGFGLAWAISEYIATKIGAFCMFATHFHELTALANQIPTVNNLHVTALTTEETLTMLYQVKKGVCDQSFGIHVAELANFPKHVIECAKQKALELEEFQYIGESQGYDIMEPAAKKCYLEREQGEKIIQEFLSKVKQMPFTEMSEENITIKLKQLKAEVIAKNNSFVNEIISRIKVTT
Chain of MSH2-MSH3 (purified heterodimer) (P20585 whole entry, chain 2 of 2): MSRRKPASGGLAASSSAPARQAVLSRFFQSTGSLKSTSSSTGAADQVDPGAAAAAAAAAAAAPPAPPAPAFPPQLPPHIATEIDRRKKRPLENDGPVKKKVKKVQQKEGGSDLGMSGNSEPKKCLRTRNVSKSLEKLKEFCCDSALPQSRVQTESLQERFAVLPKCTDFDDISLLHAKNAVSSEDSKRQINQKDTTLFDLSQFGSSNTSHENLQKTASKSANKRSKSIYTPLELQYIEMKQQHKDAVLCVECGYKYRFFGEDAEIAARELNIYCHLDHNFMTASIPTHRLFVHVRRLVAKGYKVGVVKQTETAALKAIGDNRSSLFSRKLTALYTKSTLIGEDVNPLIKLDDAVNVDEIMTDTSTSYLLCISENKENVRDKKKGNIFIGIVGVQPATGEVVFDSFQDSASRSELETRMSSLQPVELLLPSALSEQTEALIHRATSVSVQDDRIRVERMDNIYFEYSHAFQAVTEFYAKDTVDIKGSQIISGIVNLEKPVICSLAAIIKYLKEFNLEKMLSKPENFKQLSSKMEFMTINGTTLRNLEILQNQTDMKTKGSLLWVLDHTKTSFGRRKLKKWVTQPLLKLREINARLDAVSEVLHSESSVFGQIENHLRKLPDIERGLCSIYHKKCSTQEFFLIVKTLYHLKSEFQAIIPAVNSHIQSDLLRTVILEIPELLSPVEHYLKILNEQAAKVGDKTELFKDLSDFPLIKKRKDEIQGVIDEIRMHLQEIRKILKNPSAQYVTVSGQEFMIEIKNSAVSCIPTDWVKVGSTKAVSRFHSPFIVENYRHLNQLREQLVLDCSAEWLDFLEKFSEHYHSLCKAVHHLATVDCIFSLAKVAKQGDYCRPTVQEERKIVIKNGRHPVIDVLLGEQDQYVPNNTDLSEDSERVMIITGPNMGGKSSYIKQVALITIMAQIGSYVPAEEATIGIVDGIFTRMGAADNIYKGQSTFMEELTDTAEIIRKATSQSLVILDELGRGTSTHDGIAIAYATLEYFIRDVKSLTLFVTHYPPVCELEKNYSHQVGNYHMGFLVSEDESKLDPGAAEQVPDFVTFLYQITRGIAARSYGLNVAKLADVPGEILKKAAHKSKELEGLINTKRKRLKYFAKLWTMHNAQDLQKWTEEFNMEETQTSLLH

B1: SMARCAD1 (purified) (enzyme, human, UniProt Q9H4L7 1-1026, looked up)
chain: MNLFNLDRFRFEKRNKIEEAPEATPQPSQPGPSSPISLSAEEENAEGEVSRANTPDSDITEKTEDSSVPETPDNERKASISYFKNQRGIQYIDLSSDSEDVVSPNCSNTVQEKTFNKDTVIIVSEPSEDEESQGLPTMARRNDDISELEDLSELEDLKDAKLQTLKELFPQRSDNDLLKLIESTSTMDGAIAAALLMFGDAGGGPRKRKLSSSSEPYEEDEFNDDQSIKKTRLDHGEESNESAESSSNWEKQESIVLKLQKEFPNFDKQELREVLKEHEWMYTEALESLKVFAEDQDMQYVSQSEVPNGKEVSSRSQNYPKNATKTKLKQKFSMKAQNGFNKKRKKNVFNPKRVVEDSEYDSGSDVGSSLDEDYSSGEEVMEDGYKGKILHFLQDASIGELTLIPQCSQKKAQKITELRPFNSWEALFTKMSKTNGLSEDLIWHCKTLIQERDVVIRLMNKCEDISNKLTKQVTMLTGNGGGWNIEQPSILNQSLSLKPYQKVGLNWLALVHKHGLNGILADEMGLGKTIQAIAFLAYLYQEGNNGPHLIVVPASTIDNWLREVNLWCPTLKVLCYYGSQEERKQIRFNIHSRYEDYNVIVTTYNCAISSSDDRSLFRRLKLNYAIFDEGHMLKNMGSIRYQHLMTINANNRLLLTGTPVQNNLLELMSLLNFVMPHMFSSSTSEIRRMFSSKTKSADEQSIYEKERIAHAKQIIKPFILRRVKEEVLKQLPPKKDRIELCAMSEKQEQLYLGLFNRLKKSINNLEKNTEMCNVMMQLRKMANHPLLHRQYYTAEKLKEMSQLMLKEPTHCEANPDLIFEDMEVMTDFELHVLCKQYRHINNFQLDMDLILDSGKFRVLGCILSELKQKGDRVVLFSQFTMMLDILEVLLKHHQHRYLRLDGKTQISERIHLIDEFNTDMDIFVFLLSTKAGGLGINLTSANVVILHDIDCNPYNDKQAEDRCHRVGQTKEVLVIKLISQGTIEESMLKINQQKLKLEQDMTTVDEGDEGSMPADIATLLKTSMGL
  binding result: binds
